In paper PMC4337483 (Journal of immunology (Baltimore, Md. : 1950), 2015):

B1: periplakin residues 133-530 (PPL BamH1, purified, His tag) (domain or fragment)
chain: DPQVNWAALVEEKLDKLNNQSFGTDLPLVDHQVEEHNIFHNEVKAIGPHLAKDGDKEQNSELRAKYQKLLAASQARQQHLSSLQDYMQRCTNELYWLDQQAKGRMQYDWSDRNLDYPSRRRQYENFINRNLEAKEERINKLHSEGDQLLAAEHPGRNSIEAHMEAVHADWKEYLNLLICEESHLKYMEDYHQFHEDVKDAQELLRKVDSDLNQKYGPDFKDRYQIELLLRELDDQEKVLDKYEDVVQGLQKRGQQVVPLKYRRETPLKPIPVEALCDFEGEQGLISRGYSYTLQKNNGESWELMDSAGNKLIAPAVCFVIPPTDPEALALADSLGSQYRSVRQKAAGSKRTLQQRYEVLKTENPGDASDLQGRQLLAGLDKVASDLDRQEKAITGILR

What was measured:
[1] = molecular target: BTN3A1 B30.2 domain (BTN3A1 residues 310-513) (Homo sapiens, UniProt O00481); test: isothermal titration calorimetry; type: binding
[2] = molecular target: 3A1v2 cytoplasmic tail (protein used in ITC) (human); test: ITC
[3] = molecular target: BTN3A1 residues 310-513 (purified, His tag) (human) (UniProt O00481); test: ITC

| Molecule | Kd [1] | Kd [2] | Kd [3] | stoichiometry N [3] |
| --- | --- | --- | --- | --- |
| C=C(C)CCO[P@@](=O)(O)OP(=O)(O)O [IPP] | 672000 nM |  |  |  |
| B1 |  | 580 nM | 2100 nM | 1 |
